Laboratory results from paper PMC4538832, “Structures of the T. brucei kRNA editing factor MRB1590 reveal unique RNA-binding pore motif contained within an ABC-ATPase fold” (Nucleic Acids Research, 2015).
pKd: −log10 of the molar value.

Tested on: T1, MRB1590(10-668) (Trypanosoma brucei), UPI00067E648B
T1 sequence: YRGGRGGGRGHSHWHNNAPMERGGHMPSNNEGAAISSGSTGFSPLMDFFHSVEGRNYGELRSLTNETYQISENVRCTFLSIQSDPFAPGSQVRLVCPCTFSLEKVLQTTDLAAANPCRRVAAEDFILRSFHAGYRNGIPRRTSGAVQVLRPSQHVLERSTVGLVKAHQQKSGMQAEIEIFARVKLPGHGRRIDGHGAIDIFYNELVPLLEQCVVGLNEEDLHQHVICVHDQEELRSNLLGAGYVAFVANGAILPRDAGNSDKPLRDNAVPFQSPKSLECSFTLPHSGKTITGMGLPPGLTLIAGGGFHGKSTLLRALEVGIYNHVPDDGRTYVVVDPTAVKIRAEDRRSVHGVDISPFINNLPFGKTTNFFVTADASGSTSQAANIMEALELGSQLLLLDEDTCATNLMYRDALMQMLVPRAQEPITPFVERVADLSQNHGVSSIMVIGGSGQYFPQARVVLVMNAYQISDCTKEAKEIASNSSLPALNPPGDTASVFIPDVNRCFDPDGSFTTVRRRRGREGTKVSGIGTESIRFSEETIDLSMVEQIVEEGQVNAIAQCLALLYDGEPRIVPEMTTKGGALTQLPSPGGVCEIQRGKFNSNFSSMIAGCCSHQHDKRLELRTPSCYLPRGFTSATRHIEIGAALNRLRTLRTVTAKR
Experiment: fluorescence polarization
Settings: FP: 20 mM Tris-HCl pH 7.5, 150 mM NaCl, 5% glycerol, 1 mM MgCl2, 2 mM ADP or AMP-PNP, 1 nM 3'-fluoresceinated RNA (heated to 99 C, slow cooled), 25 C

Substance	pKd
40 mer GC-rich A6	8.89
GC-rich RNA 14 mer	6.63
GC-rich RNA 18 mer	8.24
GC-rich RNA 15 mer	7.55
GC-rich RNA 16 mer	8.09
